Earlier results on one substance are cited in PMC10518620.

The target of this data set is C3aR (Homo sapiens) (UniProt Q16581).
Chain of UniProt Q16581 (Q16581 whole entry): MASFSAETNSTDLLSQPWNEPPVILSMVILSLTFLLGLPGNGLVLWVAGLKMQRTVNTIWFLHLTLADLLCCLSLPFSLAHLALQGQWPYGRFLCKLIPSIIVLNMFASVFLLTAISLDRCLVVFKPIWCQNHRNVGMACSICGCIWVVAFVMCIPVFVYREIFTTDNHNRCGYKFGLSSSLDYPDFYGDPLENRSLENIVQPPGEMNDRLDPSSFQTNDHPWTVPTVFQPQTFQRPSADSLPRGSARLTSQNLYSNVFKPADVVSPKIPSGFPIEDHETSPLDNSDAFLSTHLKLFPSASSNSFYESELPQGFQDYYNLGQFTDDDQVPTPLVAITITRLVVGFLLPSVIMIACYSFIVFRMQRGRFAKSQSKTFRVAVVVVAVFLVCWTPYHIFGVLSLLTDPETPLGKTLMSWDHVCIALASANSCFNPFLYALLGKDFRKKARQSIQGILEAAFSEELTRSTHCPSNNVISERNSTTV

As a reminder, the Kd is the constant that tells how readily two partners part at equilibrium. Take C3a C3a (from UniProt P01024): the Kd was 1 nM.
